One data set concerns the target cJun bZIP (human, UniProt P05412). In words: CD (281 nm DNA peak); 20 uM cJun, 5 uM DNA; DNA peak decreases by 55%; EMSA: 150 mM KCl, 1 mM DTT, 1 mM EDTA, 10 mM Tris, 10 mM MgCl2, pH 8, 4 C, 30 min; CD: buffer with TCEP, pH 7.4, 30 min (rest not in material). The settings on record: protein: recombinant; tags: C-terminal GAP; His-SUMO cleaved off; chain copies: 2; blunt. (In general: A gel shift assay detects complexes by their altered migration in electrophoresis.)

The next data set deals with T1, A-FosW (designed).
T1 chain: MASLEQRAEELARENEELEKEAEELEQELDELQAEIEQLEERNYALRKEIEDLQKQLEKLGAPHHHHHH
The experiment in a line: CD (281 nm DNA peak); 50 uM A-FosW, 5 uM DNA; EMSA: 150 mM KCl, 1 mM DTT, 1 mM EDTA, 10 mM Tris, 10 mM MgCl2, pH 8, 4 C, 30 min; CD: buffer with TCEP, pH 7.4, 30 min (rest not in material). Particulars: protein: recombinant; tags: N-terminal MAS, C-terminal GAP-His6; blunt.

The target in a further data set is T2, HingeW (designed).
T2 chain: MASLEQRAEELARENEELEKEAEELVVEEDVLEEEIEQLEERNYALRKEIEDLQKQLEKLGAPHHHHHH
The experiment in a line: CD (281 nm DNA peak); EMSA: 150 mM KCl, 1 mM DTT, 1 mM EDTA, 10 mM Tris, 10 mM MgCl2, pH 8, 4 C, 30 min; CD: buffer with TCEP, pH 7.4, 30 min (rest not in material). The settings on record: protein: recombinant; tags: N-terminal MAS, C-terminal GAP-His6; blunt.

Sequence of cJun bZIP (P05412 other isoform, or with tags, fused parts or gaps): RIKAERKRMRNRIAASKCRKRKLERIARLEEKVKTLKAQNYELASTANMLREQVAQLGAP

B1: TRE DNA (dsDNA)
DNA 1: GTCAGTCAGTGACTCAATCGGTCA
DNA 2: TGACCGATTGAGTCACTGACTGAC
Turning to B1, the binding result with cJun bZIP is “binds”; in the data set with A-FosW it was “no binding”; in the data set with HingeW, “no binding”.
